Data: the supplement of paper PMC11136658

System: peptide library, one residue held at a place counted from the Y acceptor
Assay: relative phosphorylation of the sub-library (ratio to the mean residue at this position); higher = residue favoured
How it was run: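 Every value reflects phosphorylation relative to the mean randomized residue. The sum of the 18 randomized residues, or 16 in the Ser/Thr-free library, served to normalize intensities at each position, which were then multiplied by that number. Intensities came from phosphorimaging with ImageQuant of biotinylated Tyr-centred peptides captured on streptavidin membranes after 90 min with purified recombinant kinases and 50 μM ATP plus γ-32P-ATP.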

Chain of EPHB4, construct: aa561-end, human (P54760 561-987, looked up): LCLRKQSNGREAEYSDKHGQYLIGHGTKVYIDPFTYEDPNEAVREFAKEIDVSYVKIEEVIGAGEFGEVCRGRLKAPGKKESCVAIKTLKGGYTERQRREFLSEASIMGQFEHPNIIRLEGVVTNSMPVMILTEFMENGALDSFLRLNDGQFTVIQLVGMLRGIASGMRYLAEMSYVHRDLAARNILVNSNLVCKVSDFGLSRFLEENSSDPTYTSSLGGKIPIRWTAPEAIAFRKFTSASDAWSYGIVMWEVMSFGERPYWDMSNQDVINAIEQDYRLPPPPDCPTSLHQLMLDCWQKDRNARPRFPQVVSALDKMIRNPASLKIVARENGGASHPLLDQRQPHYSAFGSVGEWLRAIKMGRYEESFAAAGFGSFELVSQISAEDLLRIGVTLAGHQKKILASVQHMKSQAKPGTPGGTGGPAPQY
Chain of EPHB3, construct: aa623-907, human (P54753 623-907, looked up): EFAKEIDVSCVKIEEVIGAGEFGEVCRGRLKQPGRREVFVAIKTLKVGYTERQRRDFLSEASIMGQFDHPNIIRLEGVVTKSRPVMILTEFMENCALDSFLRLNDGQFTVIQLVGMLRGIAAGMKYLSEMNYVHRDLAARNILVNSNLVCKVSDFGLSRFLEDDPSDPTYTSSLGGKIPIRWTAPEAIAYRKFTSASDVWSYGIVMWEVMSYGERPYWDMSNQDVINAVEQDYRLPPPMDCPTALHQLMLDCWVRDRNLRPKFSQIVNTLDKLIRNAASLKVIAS

EPHB3, construct: aa623-907, human (from UniProt P54753)
relative phosphorylation
Settings	at +1	at +2	at +3	at +4	at +5	at -1	at -2	at -3	at -4	at -5
A fixed	1.96	0.847	0.837	0.853	0.843	0.583	1.21	0.804	1.15	0.981
D fixed	1.06	0.993	0.442	1.06	1.14	2.09	1.04	1.04	1.03	0.921
E fixed	2.6	1.33	0.413	1.16	1.15	1.38	1.29	1.19	1.39	0.842
F fixed	0.588	1.38	1.31	1.04	0.656	1.03	0.661	1.39	1.09	1.16
G fixed	1.13	0.428	0.651	1.26	1.36	0.226	1.33	1.05	1.37	1.32
H fixed	0.573	0.91	1.57	1.19	1.12	0.638	0.9	1.05	0.899	0.933
I fixed	1.19	1.24	1.95	0.801	0.581	2.29	0.899	1.14	1.01	1.14
K fixed	0.211	0.576	0.297	0.737	1.02	0.234	0.841	0.61	0.898	0.992
L fixed	0.732	0.974	1.39	0.821	0.613	1.87	0.83	0.912	0.959	0.98
M fixed	1.14	0.913	1.29	0.984	0.927	0.849	0.709	0.928	0.854	0.9
N fixed	0.393	1.01	0.653	0.856	1.1	2.4	1.12	1.09	0.922	1.08
P fixed	0.157	0.739	1.26	1.54	1.46	0.415	1.32	1.12	1.06	1.06
Q fixed	1.31	0.954	0.799	1.01	1.07	0.406	1.18	0.837	1.11	0.989
R fixed	0.278	0.768	0.468	0.855	1.32	0.239	0.896	0.722	0.84	1.03
S fixed	1	0.886	0.689	0.8	1.2	0.516	1.3	1	0.82	0.869
T fixed	0.903	0.989	0.796	0.865	1.16	1.03	0.96	0.942	0.762	0.761
V fixed	1.64	1.29	1.7	0.814	0.552	1.1	0.848	0.874	0.777	0.795
W fixed	1.12	1.77	1.49	1.36	0.723	0.697	0.672	1.31	1.05	1.26
pThr fixed	1.34	1.82	0.32	0.825	0.763	1.63	0.847	0.897	0.873	0.831
pTyr fixed	1.5	3.93	0.629	0.894	0.978	1.79	1.05	1.06	1.06	0.83

EPHB4, construct: aa561-end, human (from UniProt P54760)
relative phosphorylation
Settings	at +1	at +2	at +3	at +4	at +5	at -1	at -2	at -3	at -4	at -5
A fixed	2.01	0.93	0.981	0.836	0.988	0.59	1.26	0.954	1.17	1.05
D fixed	0.98	0.854	0.481	0.969	1.18	2.38	1.15	1.32	1.09	1.12
E fixed	2.09	1.19	0.409	1	0.934	1.38	1.07	1.52	1.14	0.945
F fixed	0.651	1.15	1.06	1.01	0.879	0.933	0.628	1.16	0.904	0.895
G fixed	1.03	0.54	0.694	1.16	1.22	0.36	1.17	0.986	1.39	1.38
H fixed	0.482	0.782	1.08	1.16	0.89	0.577	0.911	0.93	0.941	0.998
I fixed	1.02	1.19	1.47	0.663	0.675	1.91	0.772	0.996	0.965	0.775
K fixed	0.404	0.755	0.464	0.907	0.959	0.357	0.99	0.674	0.953	1.05
L fixed	0.774	0.955	1.49	0.792	0.77	1.77	0.834	0.82	0.797	0.838
M fixed	1.36	0.914	1.25	0.969	0.934	0.806	0.722	0.8	0.962	0.949
N fixed	0.489	1.05	0.698	0.947	1.03	2.07	1	1.13	0.889	1.03
P fixed	0.319	0.821	1.46	1.29	1.45	0.513	1.6	1.21	1.35	1.27
Q fixed	1.35	1.03	0.884	1.04	1.02	0.501	1.13	0.863	1.12	0.907
R fixed	0.455	1.08	0.624	1.14	1.13	0.389	1	0.871	0.989	1.17
S fixed	1.05	0.937	0.945	0.974	1.18	0.572	1.57	1	0.915	0.953
T fixed	0.833	1.1	0.832	0.984	1.05	1.08	0.863	0.843	0.696	0.905
V fixed	1.75	1.37	1.73	0.792	0.716	1.04	0.758	0.825	0.874	0.8
W fixed	0.957	1.36	1.45	1.36	0.991	0.773	0.567	1.1	0.859	0.97
pThr fixed	1.45	1.7	0.467	0.855	0.682	1.61	0.917	0.96	0.855	0.898
pTyr fixed	1.36	3.59	0.719	0.965	1.04	2.25	0.931	1.17	1.08	1.11

ERBB2, construct: aa676-end, human (from UniProt P04626)
relative phosphorylation
Settings	at +1	at +2	at +3	at +4	at +5	at -1	at -2	at -3	at -4	at -5
A fixed	0.734	0.684	0.603	0.869	1.51	0.72	0.953	0.764	0.972	0.899
D fixed	0.56	1.04	0.571	0.774	0.521	1.88	1.26	1.48	1.19	1.04
E fixed	0.87	1.19	0.493	0.79	0.575	1.91	1.58	1.88	1.41	0.983
F fixed	1.73	1.58	2.19	1.09	0.958	1.12	0.99	1.27	1.02	1.06
G fixed	0.526	0.504	0.621	0.943	1.06	0.567	1.15	1	1.2	1.12
H fixed	1.18	0.884	0.867	1.02	1.61	0.846	0.936	0.855	0.872	1.04
I fixed	1.5	0.984	1.86	0.764	0.878	1.62	0.932	0.726	0.985	0.909
K fixed	0.462	0.78	0.474	0.991	0.87	0.476	0.674	0.659	0.834	0.992
L fixed	1.53	0.938	1.51	0.8	1.13	1.28	0.973	0.963	0.994	1.06
M fixed	1.17	0.924	1.26	1.23	1.25	0.986	0.837	0.937	0.959	1.01
N fixed	0.59	1.03	0.65	0.843	0.667	1.07	1.08	1.1	1.01	1.14
P fixed	0.395	0.714	0.72	1.18	1	0.617	0.922	0.795	0.924	0.987
Q fixed	0.923	1.02	0.821	0.959	0.679	0.849	1.07	0.876	1.17	1.04
R fixed	0.555	0.837	0.669	1.18	1.28	0.506	0.825	0.824	0.952	1.03
S fixed	0.757	0.928	0.608	0.808	0.849	0.693	0.921	0.989	0.851	0.887
T fixed	0.943	0.874	0.68	0.844	0.944	0.811	0.966	0.948	0.761	0.883
V fixed	2	0.98	1.26	0.807	1.08	1.3	1.03	0.851	0.814	0.915
W fixed	1.59	2.12	2.14	2.11	1.14	0.748	0.91	1.08	1.1	0.991
pThr fixed	1.22	1.36	0.495	0.755	0.514	1.99	1.7	1.7	1.26	1.14
pTyr fixed	6.36	3.29	0.953	0.93	0.82	3.1	1.62	2.2	1.91	1.25
